{"source": "the supplement of paper PMC9170038", "key": {"[1]": {"test_system": "MS2 coat protein", "experiment": "apparent KD of MS2 coat protein; designed switch direction (-1 OFF switch, 1 ON switch): -1; higher = weaker reporter binding", "conditions": "Eterna round: R98", "procedure": "(§1)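 RNA-MaP: designed FMN/MS2 RNA switches (84 nt design region) are transcribed on-chip within common flanks and titrated with SNAP-549-labelled MS2 coat protein (about 1-3000 nM) in 100 mM Tris pH 7.5, 80 mM KCl, 4 mM MgCl2, without or with 200 uM FMN. Median apparent KD per design; activation ratio = KD,OFF / KD,ON.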"}, "[2]": {"test_system": "MS2 coat protein", "experiment": "apparent KD of MS2 coat protein; designed switch direction (-1 OFF switch, 1 ON switch): 1; higher = weaker reporter binding", "conditions": "Eterna round: R98", "procedure": "as §1"}}, "data": [{"sequence": "AAUAUGAGCUGGAAUAUAAAACUCACAUGAGGAUCACCCAUGUAGGAUAUCAGCACGAUAAGUGCUGAGAAGGACAACCAGCUC [Denovo 31]", "values": [{"measurement": "apparent KD of MS2 coat protein", "setting": "[1]; input ligand: FMN 200 uM", "value": 15.1, "unit": "nM"}, {"measurement": "apparent KD of MS2 coat protein", "setting": "[1]; input ligand: none", "value": 16.8, "unit": "nM"}]}, {"sequence": "AAUAUAAGAGCUGGAAAUAAACUCACAUGAGGAUCACCCAUGUAGGAUAUCAGCACGAUAAGUGCUGAGAAGGACAUCCAGCUC [Denovo 56]", "values": [{"measurement": "apparent KD of MS2 coat protein", "setting": "[1]; input ligand: FMN 200 uM", "value": 14.7, "unit": "nM"}, {"measurement": "apparent KD of MS2 coat protein", "setting": "[1]; input ligand: none", "value": 16.4, "unit": "nM"}]}, {"sequence": "GGUUGACGACAAUUACAUGAGGAUCACCCAUGUUGUGGGAUGCAGGAUAUGUGGUAUAUUAUUUAACAGAAGGGCAAUAAUUUU [JR_SSNG3_Sub063]", "values": [{"measurement": "apparent KD of MS2 coat protein", "setting": "[2]; input ligand: FMN 200 uM", "value": 54.7, "unit": "nM"}, {"measurement": "apparent KD of MS2 coat protein", "setting": "[2]; input ligand: none", "value": 32.3, "unit": "nM"}]}, {"sequence": "UGAUCGCUUGGAGGAUAUCCAACUAUCCUAGUUGGAGAAGGCCAAGCUACAGAGCUAAGCUUGGAAGUCACUUCGAAUCAACAC [pwkr Chip 1 Control 70 ssNG1 F9.4]", "values": [{"measurement": "apparent KD of MS2 coat protein", "setting": "[2]; input ligand: FMN 200 uM", "value": 64.8, "unit": "nM"}, {"measurement": "apparent KD of MS2 coat protein", "setting": "[2]; input ligand: none", "value": 53.6, "unit": "nM"}]}, {"sequence": "UCAUACAUGAGGAUCACCCAUGACAUGAGGAUCACCCAUGUGCAGGAUAUACGUGAUAUAAUAUAGUAGAAGGGCAGACCAUAA [LRO005_Exclusion NG 3]", "values": [{"measurement": "apparent KD of MS2 coat protein", "setting": "[1]; input ligand: FMN 200 uM", "value": 59.1, "unit": "nM"}, {"measurement": "apparent KD of MS2 coat protein", "setting": "[1]; input ligand: none", "value": 40.6, "unit": "nM"}]}, {"sequence": "GCUUGCGACGCAGGAUAUGGGUGCCUGCACACGAGGAUCACCCGUGUAGAGGAAGCGAAAAGCUCUCAGAAGGGCGUCGCAGGC [United States 5 - Jieux - Same State NG 2]", "values": [{"measurement": "apparent KD of MS2 coat protein", "setting": "[2]; input ligand: FMN 200 uM", "value": 20.7, "unit": "nM"}, {"measurement": "apparent KD of MS2 coat protein", "setting": "[2]; input ligand: none", "value": 45.3, "unit": "nM"}]}, {"sequence": "UGUUGUUACGCAGGAUAUUGCCAACAGGCGGUAGGAUAUCCGAAAGGAGAAGGACCGCCAACAGGCGAGAAGGGCGGGUUAACA [pwkr exNG2 2xF7 2FMN.10.1]", "values": [{"measurement": "apparent KD of MS2 coat protein", "setting": "[1]; input ligand: FMN 200 uM", "value": 37, "unit": "nM"}, {"measurement": "apparent KD of MS2 coat protein", "setting": "[1]; input ligand: none", "value": 35.2, "unit": "nM"}]}, {"sequence": "GUUGCUUUCCGAGGAUAUUCCGGGCGUGGCUAUACAUGAGGAUCACCCAUGUGGCGGAAGCCUAGGGAGAAGGCGGGCUGCUUC [salish99_SSNG2_r2_230]", "values": [{"measurement": "apparent KD of MS2 coat protein", "setting": "[2]; input ligand: FMN 200 uM", "value": 16.3, "unit": "nM"}, {"measurement": "apparent KD of MS2 coat protein", "setting": "[2]; input ligand: none", "value": 17.1, "unit": "nM"}]}, {"sequence": "GGAUCCAUCACAGGAUAUGCUGGACUUUGUCCAGCAGAAGGGUGAACAUGAGGAUCACCCAUGUAUUGGAUCCAUAUAUUUAAU [Denovo 35]", "values": [{"measurement": "apparent KD of MS2 coat protein", "setting": "[2]; input ligand: FMN 200 uM", "value": 94.1, "unit": "nM"}, {"measurement": "apparent KD of MS2 coat protein", "setting": "[2]; input ligand: none", "value": 1290, "unit": "nM"}]}, {"sequence": "CCGAUGCAAAUAAAACAUGAGGAUCACCCAUGUGAGUCUCAUGAGGAUAUGCAGGUCAAAGACUUGCAGAAGGCAUGGCGUCGG [Eli sng3 2.08]", "values": [{"measurement": "apparent KD of MS2 coat protein", "setting": "[2]; input ligand: FMN 200 uM", "value": 135, "unit": "nM"}, {"measurement": "apparent KD of MS2 coat protein", "setting": "[2]; input ligand: none", "value": 1370, "unit": "nM"}]}, {"sequence": "CCUGUCGCAUGAGGAUAUGGUCAGCUUUGCUGACCAGAAGGCAUGUCAAUAGACAUGAGGAUCACCCAUGUAGUAAAGACAGGA [Mat - Same State NG 1 - JL Mod - D36]", "values": [{"measurement": "apparent KD of MS2 coat protein", "setting": "[2]; input ligand: FMN 200 uM", "value": 36.2, "unit": "nM"}, {"measurement": "apparent KD of MS2 coat protein", "setting": "[2]; input ligand: none", "value": 395, "unit": "nM"}]}, {"sequence": "GAUCCGAGCACAGGAUAUGUUAGAGAGGGUGAGACAGAAGGGUGCUCCGGUAAGGCCAAGCACAUGAGGAUCACCCAUGUACAU [Orbezaen]", "values": [{"measurement": "apparent KD of MS2 coat protein", "setting": "[2]; input ligand: FMN 200 uM", "value": 64.9, "unit": "nM"}, {"measurement": "apparent KD of MS2 coat protein", "setting": "[2]; input ligand: none", "value": 29.7, "unit": "nM"}]}, {"sequence": "GGUCCAUCAUGAGGAUAUGGCACCUUAUUGGUGCCAGAAGGCAUGUGUAUUCACAUGAGGAUCACCCAUGUAAUAAAUUGGACC [Pyrimidine booster 8]", "values": [{"measurement": "apparent KD of MS2 coat protein", "setting": "[2]; input ligand: FMN 200 uM", "value": 21.5, "unit": "nM"}, {"measurement": "apparent KD of MS2 coat protein", "setting": "[2]; input ligand: none", "value": 53.2, "unit": "nM"}]}, {"sequence": "GACUUGGCUACAUGAGGAUCACCCAUGUUUGACUGGAUCGAUUAGGAUAUAGUGAUUUGCAACAAUUAGAAGGGAUAUUUACGG [byesamestateseeyounextround#3]", "values": [{"measurement": "apparent KD of MS2 coat protein", "setting": "[2]; input ligand: FMN 200 uM", "value": 31.3, "unit": "nM"}, {"measurement": "apparent KD of MS2 coat protein", "setting": "[2]; input ligand: none", "value": 32.9, "unit": "nM"}]}, {"sequence": "GCACUGGAUGUAGGAUAUCAGGACGAUAAGUCCUGAGAAGGACAUGAGGAUCACCCAUGUGCCAAAACCAGUGCAUAUAAUAUA [Denovo Exng1 33]", "values": [{"measurement": "apparent KD of MS2 coat protein", "setting": "[1]; input ligand: FMN 200 uM", "value": 16.9, "unit": "nM"}, {"measurement": "apparent KD of MS2 coat protein", "setting": "[1]; input ligand: none", "value": 12.5, "unit": "nM"}]}, {"sequence": "AAAAUAAAGGCAGGAUAUACAUGAAUAAAUAAUAUAAUAUAUAAUAAAACAUGAGGAUCACCCAUGUAGAAGGGCCAAAAUAAA [LRO024_Exclusion NG 2]", "values": [{"measurement": "apparent KD of MS2 coat protein", "setting": "[1]; input ligand: FMN 200 uM", "value": 107, "unit": "nM"}, {"measurement": "apparent KD of MS2 coat protein", "setting": "[1]; input ligand: none", "value": 72.3, "unit": "nM"}]}]}
